# Changes are numbered by the printed parent chain. Numbers in names are those of the source.
# B1: XPA23 light chain L96W (Fab, V domains shown)
# VH: EVQLLESGGGLVQPGGSLRLSCAASGFTFSKYFMFWVRQAPGKGLEWVSVISPSGGMTRYADSVKGRFTISRDNSKNTLYLQMNSLRAEDTAVYYCARVGYGGNSDYWGQGTLVTVSS
# VL: DIQMTQSPSSVSASVGDRLTIICRASQDINRWLAWYQQTPGNAPKLLIHSATSLQSGVPSRFSGSGSGTDFTLTINSLQPEDFATYYCQQADSFPWTFGGGTKVEIK
# B2: XPA23 light chain N30E (Fab, V domains shown)
# VH: B1 VH
# VL: B1 VL with N30E, W96L
# B3: XPA23 light chain N30Q (Fab, V domains shown)
# VH: B1 VH
# VL: B1 VL with N30Q, W96L
# B4: XPA23 light chain N30P (Fab, V domains shown)
# VH: B1 VH
# VL: B1 VL with N30P, W96L
# B5: XPA23 light chain Q27A (Fab, V domains shown)
# VH: B1 VH
# VL: B1 VL with Q27A, W96L
# B6: XPA23 light chain N30T (Fab, V domains shown)
# VH: B1 VH
# VL: B1 VL with N30T, W96L
# B7: XPA23 light chain P95K (Fab, V domains shown)
# VH: B1 VH
# VL: B1 VL with P95K, W96L
# B8: XPA23 light chain P95H (Fab, V domains shown)
# VH: B1 VH
# VL: B1 VL with P95H, W96L
# B9: XPA23 light chain L96Y (Fab, V domains shown)
# VH: B1 VH
# VL: B1 VL with W96Y
# B10: XPA23 light chain N30H (Fab, V domains shown)
# VH: B1 VH
# VL: B1 VL with N30H, W96L
# B11: XPA23 light chain N30G (Fab, V domains shown)
# VH: B1 VH
# VL: B1 VL with N30G, W96L
# B12: XPA23 light chain P95S (Fab, V domains shown)
# VH: B1 VH
# VL: B1 VL with P95S, W96L
# B13: XPA23 light chain N30A (Fab, V domains shown)
# VH: B1 VH
# VL: B1 VL with N30A, W96L
# B14: XPA23 light chain N30S (Fab, V domains shown)
# VH: B1 VH
# VL: B1 VL with N30S, W96L
# B15: XPA23 light chain N30Y (Fab, V domains shown)
# VH: B1 VH
# VL: B1 VL with N30Y, W96L
# B16: XPA23 light chain N30L (Fab, V domains shown)
# VH: B1 VH
# VL: B1 VL with N30L, W96L
# B17: XPA23 light chain P95Y (Fab, V domains shown)
# VH: B1 VH
# VL: B1 VL with P95Y, W96L
# B18: XPA23 light chain Q27D (Fab, V domains shown)
# VH: B1 VH
# VL: B1 VL with Q27D, W96L
# B19: XPA23 light chain P95D (Fab, V domains shown)
# VH: B1 VH
# VL: B1 VL with P95D, W96L
# B20: XPA23 light chain N30V (Fab, V domains shown)
# VH: B1 VH
# VL: B1 VL with N30V, W96L
# B21: XPA23 light chain N30R (Fab, V domains shown)
# VH: B1 VH
# VL: B1 VL with N30R, W96L
# B22: XPA23 light chain N30K (Fab, V domains shown)
# VH: B1 VH
# VL: B1 VL with N30K, W96L
# B23: XPA23 light chain N30I (Fab, V domains shown)
# VH: B1 VH
# VL: B1 VL with N30I, W96L
# B24: XPA23 light chain N30W (Fab, V domains shown)
# VH: B1 VH
# VL: B1 VL with N30W, W96L
# B25: XPA23 light chain P95N (Fab, V domains shown)
# VH: B1 VH
# VL: B1 VL with P95N, W96L
# B26: XPA23 light chain P95Q (Fab, V domains shown)
# VH: B1 VH
# VL: B1 VL with P95Q, W96L
# B27: XPA23 light chain N30D (Fab, V domains shown)
# VH: B1 VH
# VL: B1 VL with N30D, W96L
# B28: XPA23 light chain P95F (Fab, V domains shown)
# VH: B1 VH
# VL: B1 VL with P95F, W96L
# B29: XPA23 light chain N30F (Fab, V domains shown)
# VH: B1 VH
# VL: B1 VL with N30F, W96L
# B30: XPA23 light chain P95W (Fab, V domains shown)
# VH: B1 VH
# VL: B1 VL with P95W, W96L
# B31: XPA23 light chain P95R (Fab, V domains shown)
# VH: B1 VH
# VL: B1 VL with P95R, W96L
# B32: XPA23 light chain P95E (Fab, V domains shown)
# VH: B1 VH
# VL: B1 VL with P95E, W96L
# Target: T1, IL-1β (UniProt P01584 117-269)
# T1 construct: Antigen immobilised on the Biacore chip
# Assay: Biacore, periplasmic extract
fold difference in affinity vs original [fold],binding result,Binder
4.49,,B1
0.64,,B2
0.6,,B3
0.69,,B4
1.47,,B5
0.97,,B6
,no binding,B7
,no binding,B8
,no binding,B9
1,,B10
0.71,,B11
4.05,,B12
0.61,,B13
0.72,,B14
1.4,,B15
0.68,,B16

fold difference in affinity vs original [fold],binding result,Binder
,no binding,B17
1.07,,B18
1.32,,B19
0.89,,B20
0.74,,B21
0.61,,B22
0.65,,B23
1.06,,B24
,no binding,B25
,no binding,B26
0.81,,B27
0.98,,B28
1.59,,B29
,no binding,B30
,no binding,B31
0.88,,B32
